Measurements taken from the DeepSol protein solubility set.

Assay: soluble on expression in E. coli; label from the status in PepcDB or PDB records

Sequence | soluble on expression in E. coli
MSLQNTLGHRLVVGERQLLRFPAQQRSAAGDRLHAPSVYRRACIASLRSRQACYRHARRRCRQQEGAAMTGINRRELLRGMLASGVRAALPAGAAGALLPGSADAAPAAAKDATPLAPLGDASLAPRERLLFDFGWRFHPGHASDPSRDFEFGTFQRTFAKAGKDTATAAQLAFDDSNWQQVDLPHDWAVTLPFRPEPISASMTEEDPAAAHGYKALGTSFPENSVGWYRRMLQIPASDLGKRICLVFDGVFRDCVVFCNGHIVGRNASGYCGFEVDLSEVLDYGKPNLIVVRVDATLGEGWFYEGAGIYRHLWLQKTDPLHVPQHGVFVRSSVQGDTATAQLSTEVRNDGTASRQCVVQARITAPYGRIVAQAASAAVTVAPGQVQVVEQTVPLGQAALWSIDTPQLYTLTTSVHSAGVAVDALVTPFGVRSIAFDAQRGFLLNGAPLKLHGTNNHQDHAGVGTAIPDALHAWRLRQLKSMGCNAYRSSHNPATPELLALCDRLGMFVIEETRRMSTDPEAMAELETMVRRGRNHPSVILWSLGNEEPQQVTERGARIVTRMQQRVRQLDPTRPTTFAMDKGFGDGVGQVVDVVGFNYRTSQMDGFHAQYPNIPIYGSETGSTVSVRGNYQRDDTRGYTRAYDTDHPWWASTAEAWWSYVAQRPYIAGGFIWTGFDYRGEPTPYNRWPNVGSQFGVLDSCGFPKDNYWYYRAQWTSEPVLHLFPHWNWDGLLQPDDKGRVEVWCHSNLEAVELLVNGVSQGLQQVPAYGHVEWRVAYAPGVIEARGYRGGKLVLTERRETVGKPAAIRLSCDRSALRADAEDVAVVKVEIVDAQGRLVPNADHLVHLVLRGPARLIGVGNGDPSSHEDDKAPQRKAFNGLCMALLRSTRSSGQILLQATAPGLTSAALHLQAATSAEGHHHHHH | soluble
MSLQRESLDILKLSQAIKKCDAILIGAGAGLSSAAGLSYSGNRFKKYFNDFITKYHLQDMYSAGFYPYPSLEKYWAYWSRHIYYNRYLEAPKDTYKKLLNLLINKDYFVITTNVDHQFQIAGFIKEKLFYTQGDYGLWQCSKPCHQKTYDNYETVVTMIKQQHDLKIPSSLIPYCPICNAPMTMNLRCDKTFVQDSGWYHAQERYYHFLNKYHYSKIVYLELGVGYNTPGIIKYPFWQLTIENPKAIYACINQDIIDLPSELKKQTIMINDNIHNVLSSLEKLLEGHHHHHH | soluble
MSLQSSIYRIRHLAKPAYREEFKGDIECSTAAYKEVLEDTSTDSTSKLPLEAKFGKMSIIKLVLLLIISTIIYANDKNISNLHITSDSLIIDRTKQKAAYLGNVIVYFDNAILRTKELYIFYKTIDEKQTIDHIVVPTKLTVERKINNELLLADSAKYFCDNKQLILLGNVILQRDDNVLKTNKLIYYVDIIKK | not soluble
MSLQTPMQTVDDLRSVCDELPHSLETFPFDDETLVFKVGYLSKSRMYALTDITQDPLRLSLKVDPERGEELRQAHPQSIAPGYHLNKKHWVTVTLDGTVPAELLGELLRGSYLLVTKKGFTKAERKELGLPDSLEGGSHHHHHH | soluble
MSLQVSLNPEWLARNNDEHKIRRNDHRSPFQRDRARILHSAAFRRLQAKTQVHGTSLNDFHRTRLTHSLEAAQIGTGIVAQIKLKQPEFRELLPSDSLIDSLCLAHDIGHPPYGHGGEIALNYMMRDHGGFEGNAQTFRIVTSLEPYTEHHGMNLSRRTLLGLLKYPALLSATRAAIPPPAVAHQRQLKAKDWSPAKGIYDCDLASLDWVLEPLCESDRELLGQMRAEPSSPKEHRKTRFKSLDCSIMELADDIAYGVHDLEDAIVLGMVTRAQWQEAAAAQLAECGDPWFEEHIAELSEMLFSGKHYVRKDAIGGIVNALLTSISVKPVEAPFHNELLAFNAYIEPHMGNALEVLKHFVSQYVIQIPQVQRFEYKGQQLIMDLFEALSADPERLLPQATGEKWRKAQEQDEGMRVICDYIAAMTDAYAQRLHQQLFSAQSHYEGGSHHHHHH | soluble
MSLRDKKGPVNKRVDFLSNKLNKYSIRKFTVGTASILIGSLMYLGTQQEAEAAENNIENPTTLKDNVQSKEVKIEEVTNKDTAPQGVEAKSEVTSNKDTIEHEASVKAEDISKKEDTPKEVANVAEVQPKSSVTHNAEAPKVRKARSVDEGSFDITRDSKNVVESTPITIQGKEHFEGYGSVDIQKNPTDLGVSEVTRFNVGNESNGLIGALQLKNKIDFSKDFNFKVRVANNHQSNTTGADGWGFLFSKGNAEEYLTNGGILGDKGLVNSGGFKIDTGYIYTSSMDKTEKQAGQGYRGYGAFVKNDSSGNSQMVGENIDKSKTNFLNYADNSTNTSDGKFHGQRLNDVILTYVASTGKMRAEYAGKTWETSITDLGLSKNQAYNFLITSSQRWGLNQGINANGWMRTDLKGSEFTFTPEAPKTITELEKKLKRFHSRKNVNLIRIEGHHHHHH | not soluble
MSLRDKQKIKTKLIPEKDEGEGKYRIGLYIRDSAAGIGTMTFYEPKTKKYGALGHVISDMDTKKPIVVENGEIVKSTVTSIEKGTGGNPGEKLARFSSERKTIGDINRNSPFGIFGTLHQPIQNNISDQALPVAFSTEVKKGPAEILTVIDDDKVEKFDIEIVSTTPQKFPATKGMVLKITDPRLLKETGGIVQGMSGSPIIQNGKVIGAVTHVFVNDPTSGYGVHIEWMLSEAGIDIYGKEKASEGHHHHHH | soluble
MSLREYIKEGIKLAVTNIPEDVVSAIREALEREESKIAKYNLEMILKAIDISRKEGIPVCQDTGTPIFFVRTNGPINKIYDEIVKGVEIATREVPLRPNALHVLDGKVIGNVPEVHFEPGKETLISILMKGGGSENCTALFPLTPAEGLEGVKNKVIEHVQSCGGKPCPPIIVGIGIASPAEKAIILAKKALLRRISERHPNEKLAKFERELLEEINSLGIGPMGLGGRTTALDVKVEVETRHPASYIVGVVIQCWAHRRAFIKVSEGGVKIWQEGGSHHHHHH | soluble
MSLRFIDKLYQANLGKLTAGISPAALGTAYYSWFAQLLQSPGSMLRLAYYPLLHANDYLSNLFKYDKPRDGKDVRFHTENWSYYPWRLWAEQFLQFEDWCLQASSKVPGIPLHVKRTVTFSTRQILDALSPSNFVLTNPDLLQETIRSNGQNLIRGTELAFQDFVEKITGSPPAGVENFIPGKQVAVTEGKVVYSNHLIELIQYTPQTEKVYKEPILILPAWIMKYYILDLLPENSLVNWLVRQGHTVFIVSWRNPTKEDRNIGLDDYYKLGAMDAINAVSNAIPHTKIHLMGYCLGGTLALLTAAAMAHDHDNRLKTLSLLAAQGDFIDAGELLLFITKSEVSFLKSMMWEQGYLDTKQMSGTFQMLRSYDLIWSKMVQDYMHGTQRGMIPLLAWNADATRMPYKMHSEYLEKLFLNNDFAEGRFILDGKPVVGENIRMPAFVVSTEKDHVAPWKSVYKTHLLINSDITFVLTNGGHNAGIVSEPGHEGRYYRIRERKMDSTYLDPTNWLKKAELREGSWWIAWHDWLVNHSSQKQVSAPKLDKNLPNAPGKYVLQKEGHHHHHH | not soluble
MSLRIGVAGVGKLGEFHTNLLKQIAAEASDVEFSGVFDLNPERLQEIGKKYGVACFSTLEELAASCDAAVIATTTSSHYAIARQLLEARLHLFIEKPITATLEEADKLIRIEQEKGLTIQVGHIERFNPALLAVEPYIGEPMYIQAERLSGFSRRVTDVSVVLDLMIHDIDLVLSLIKSDIRSIAASGVKVFSNELDMATARIEFENGAIANVTASRLSRSKLRKMRFFTRNPKSYASLDFTSGKSEVFRLVPPDQLSSKNPIKNFATKKILEQFGEIQESLKEMALDYVSPDVPKINALKEELEQFIDAIRKGKPAKVTSEEGRRALMVAGKITDEIRNNTADLDEGHHHHHH | soluble
MSLRIKNNEVAVYAIGGLHEIGKNMYCVQYQDEIIIMDCGIKFPEDDLLGINYVISDYSYLIKNRKKIKALVVSHGHEDHIGGIPFLLEKIPEIPVYATPFALSLIRGKLEEHGILKTTELHEEHEDTVLKFKKLSVSFFRTTHSIPDTLGIAVHTPLGAVVFTGDFKFDLTPVMDQPAPDFQKMAKLGNEGVLALLSDSTNAEVTQFTKSERFVAQSLHNIITGIHGRIIFATFASNLYRVSTAIQAAIDTGRKVAIFGRSMENGVDNGIDLGYLDIPKDLIVDAEEINKLPPDKVMILCTGSQGEPLAALSRIANGTHRQITLQPGDTVIFSSNPIPGNTLSVNHLINKLMEGGANVIHGRVNNVHTSGHGGQEELKMMVRLTKPKYMIPVHGEYRMQVIHTQLAQQAGVPAENTFVLSNGEVVCFGPNGARLAGRIPAGDVYVDTSGTADVGNVVVHDRQILSEEGLVVAVATVDYKHKRVLAGPDILSRGFVYMRESTELISQAQKHVYHVLRNEMSKSDKPKESEIKKAITENLSDFLYSKTERRPMILPIIIEKEGHHHHHH | soluble
MSLRISMATFFPQSVTALDSPLYGRSFADDKMRELFSAQSFISRCVETEVALARAQARLGIIPEDAAAGITAAARTFAPEMERLRDDTEIVGYPILPLVEQLSAHAGEAGKYLHWGATTQDIMDTATVLQIRDGLALISRRIESVRKALAALARNHRDTPMAGRTHLQHALPVTFGYKAAVWLSAFDRHAARLEEISPRVLVVEFSGASGTLASLGTRGLDVQRELARELNLGVPSITWHSARDAVAETVQFLALVSGSLGKLAMDISIMMTTELGEVAEPFVRHRGASSTMPQKQNPVSCELILAGARIVRNHATSMLDAMIHDFERATGPWHLEWSAVPEGFAVASGILYQAEFMLGGLQVFPDRMRENLDHSRGLIVAEAVMMALAPHTGRKEAHDIVYLGCRRAVEDKTGLFEVLRTMPEVAKPLGEEALRDLTDPRNYLGSAGAMVDNVLGGREGHHHHHH | soluble
MSLRKIIPINNNWYFKADYEEGYEKVDDLRSFENVNLPHTNIELPYNYFDEKMYQIKSCYKYPLHISEKYRDKVIYIHFEGVMAYAQVYLNGLYIGEHKGGYTPFDIRIDEVYDWKKELNMLTVVVDSTERSDIPPKGGQIDYLTYGGIYREVSLGIYDDVFIKNIKVETHGIYDNEKSLNLIVHLENLNHQSGNVKFKVKINDKNGKEVFYKEFNTYLDAVKDVYSFNIENLKDIKLWDVDNPNLYEIKVGMKINNFSDEYDNKFGFREAVFKPDGFYLNGRKLKLRGLNRHQSYPYVGYAMPRRVQEKDAEILKNELHLNIVRTSHYPQSKHFLNKCDELGLLVFEEIPGWQYIGNSEWKKVAEQNLREMITRDWNHPSIILWGVRINESQDDDAFYKNMNKIAHEIDPTRQTGGVRYITNSSFLEDVYTFNDFIHDGINKPLRKQQEVTGLEHNVPYLVTEYNGHMYPTKRFDNEERQMEHCLRHLRIQNASYLDDSISGAIGWCAFDYNTHKDFGSGDRICYHGVMDMFRLPKFASYVYKSQVSPDIEPILEPVTFWARGERSIGGVIPLIIFTNCDYIELQYGNKTKIDNIYPNRDAYKGIPYPPIIIDYDIVKPEMIGAWGMVWEDLTLKGFYKGNKVIERKFSREPIPTYLYVVPDDTILSATQKDATRIVVKILDQYGNLLPFINEVIKIEIEGPAKLQGPNEVALIGGEGHHHHHH | soluble
MSLRKNIFFIVFIILCAVSCTEKKSNFINTVHLKGQLLDMGSQNVRMRFDGAASMLGDSRDILLKTDAAGYFDTTFVLKEPTYYTISRNTLYLTPGDDMTIKVTQTNTEAEFSGIGAEANNYMKFRLFPKGGSYLEAGGNLRGDFVSTKALVDSLAAIRMHTLDTLSNVSDAFKKLETARIKADIINSYICYASYSRMFAEVKNEEEMRAKWNEFNVSLTQDVTPLYKEIVNEDMLNVAVVRDVLSYQEDSTLASLWFKDISIPARTTELYACAKIVDNLRNEASEQTVNEAKAFLQTVKNADFATEIEGKIVQASKLLPGQPAIDFEMLDVEGNVKHLADFKGKVIYIDLWATWCGPCIQESPAFEALGKKYVGKDIVFLPVSTDTTTKPWLRYLDGHKKELTQYHSNDVALKESWAIMYIPRFILIDKDFNIVNAYAPRPSSEEIGTLIDSVLNKEGHHHHHH | soluble
